Test results: US20180371066A1 (C2N DIAGNOSTICS, published 2018)

Legend:
human tau [1] = biological target: T1, human tau (human, UniProt P10636 2-60); assay: competition ELISA on plate-coated human tau against biotinylated HJ8.5; IC50 normalised to chimeric HJ8.5; column C2N Run 2
T1 construct: also called soluble human tau; human tau protein

human tau [2] = biological target: T1, human tau; assay: competition ELISA on plate-coated human tau against biotinylated HJ8.5; IC50 normalised to chimeric HJ8.5; column External
[3] = biological target: T2, recombinant human Tau-412 protein (human, UniProt P10636-7 1-412); assay: SPR Biacore T200, Protein A capture, mean of the VH2/VK2 runs
T2 construct: Analyte of the SPR study; also called human tau (1N4R, 412 amino acids)
Description: (§1) Kinetic data was obtained at a flow rate of 40 μL/min to minimize any potential mass transfer effects. Two repeats of the blank (no antigen) and the 2.5 nM concentration of the analyte were programmed into the kinetic run in order to check the stability of both the surface and analyte over the kinetic cycles. For the initial kinetic runs, 2-fold dilutions of Tau-412 from 40 nM to 0.156 nM were run. For kinetic analysis and on subsequent runs, an analyte range of 20 nM to 0.625 nM was selected. This range covered multiple analyte concentrations both above and below the reported KD.
(§2) The association phase was monitored for 500 seconds to allow some of the higher concentrations of analyte to reach steady state. In order to observe a sufficient signal decrease (>10%) during the dissociation phase of the kinetic cycle, dissociation was measured for 1200 seconds. As discussed in Section 5, the Fcs were allowed to stabilize for 600 seconds after each regeneration step. The signal from the reference channel Fc1 was subtracted from that of Fc2, Fc3 and Fc4.
(§3) The kinetic parameters for the interaction of Tau-412 with the 7 mAbs as measured using the Protein A capture system on the Biacore T200 are shown in Table F-2. To correct for differences in the capture level of the antibody between each binding cycle, a local Rₘₐₓ parameter was used in the 1-to-1 binding model. Kinetic analysis was performed in three independent runs using fresh preparations of Tau-412 and antibody. Run 1 and runs 2+3 used different vials of the antigen Tau-412; therefore the reported errors associated with the mean response probably represent variation in preparation of the analyte and differences in assay set-up and run. From run 1 to runs 2+3, the amount of antibody injected was adjusted to try to get closer to the target 300 RU capture levels.
Target sequence in this assay (P10636 other isoform, or with tags, fused parts or gaps limits assumed): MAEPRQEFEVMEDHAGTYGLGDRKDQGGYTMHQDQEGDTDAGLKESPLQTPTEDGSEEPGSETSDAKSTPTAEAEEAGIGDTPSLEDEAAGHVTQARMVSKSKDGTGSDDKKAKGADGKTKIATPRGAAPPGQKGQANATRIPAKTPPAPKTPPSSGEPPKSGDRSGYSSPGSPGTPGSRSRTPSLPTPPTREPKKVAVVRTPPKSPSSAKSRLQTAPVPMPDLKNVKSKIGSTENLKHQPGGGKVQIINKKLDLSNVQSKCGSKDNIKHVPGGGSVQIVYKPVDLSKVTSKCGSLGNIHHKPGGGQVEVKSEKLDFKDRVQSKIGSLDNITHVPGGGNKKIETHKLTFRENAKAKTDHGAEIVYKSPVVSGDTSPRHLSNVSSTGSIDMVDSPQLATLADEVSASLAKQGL

[4] = biological target: T2, recombinant human Tau-412 protein; assay: SPR Biacore T200, mAb captured on Protein A, Tau-412 analyte, 1-to-1 model, chip A11/1
Description: as §1, §2, §3

[5] = biological target: T2, recombinant human Tau-412 protein; assay: SPR Biacore T200, mAb captured on Protein A, Tau-412 analyte, 1-to-1 model, chip A11/2
Description: as §1, §2, §3

human tau [6] = biological target: T1, human tau; assay: competition ELISA on plate-coated human tau against biotinylated HJ8.5; IC50 normalised to chimeric HJ8.5; column C2N Run 1
[7] = biological target: T2, recombinant human Tau-412 protein; assay: SPR Biacore T200, Protein A capture, mean of the VH2/VK3 runs
Description: as §1, §2, §3
Target sequence in this assay (P10636 other isoform, or with tags, fused parts or gaps limits assumed): as above

[8] = biological target: T2, recombinant human Tau-412 protein; assay: SPR Biacore T200, Protein A capture, mean of the VH1/VK3 runs
Description: as §1, §2, §3
Target sequence in this assay (P10636 other isoform, or with tags, fused parts or gaps limits assumed): as above

[9] = biological target: T2, recombinant human Tau-412 protein; assay: SPR Biacore T200, Protein A capture, mean of the VH3/VK3 runs
Description: as §1, §2, §3

[10] = biological target: T2, recombinant human Tau-412 protein; assay: SPR Biacore T200, Protein A capture, mean of the VH3/VK2 runs
Description: as §1, §2, §3
Target sequence in this assay (P10636 other isoform, or with tags, fused parts or gaps limits assumed): as above

T1 sequence (P10636 2-60 limits assumed): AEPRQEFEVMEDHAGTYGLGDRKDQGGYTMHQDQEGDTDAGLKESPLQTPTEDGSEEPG

Binder	IC50 (Relative to Chimera) (human tau [1])	IC50 (Relative to Chimera) (human tau [2])	Kd [4] [nM]	koff [4] [s⁻¹]	kon [4] [M⁻¹ s⁻¹]	Kd [5] [nM]	koff [5] [s⁻¹]	kon [5] [M⁻¹ s⁻¹]	IC50 (Relative to Chimera) (human tau [6])	further results
VH2/VK2 humanized anti-tau antibody (antibody, human IgG4 S228P, kappa, V domains shown, Humanized variant of HJ8.5) VH: EVKVVESGGGLVQPGGSLKLSCVVSGFTFSNYWVNWVRQAPGKGLEWVAQIRLKSDNYATHYEESVKGRFTISRDDSKSSVYLQMNSLRAEDTGIYYCTNWEDYWGQGTTVTVSS VL: DIVLTQSPDSLAVSLGERATISCRASQSVSTSRYSYIHWYQQKPGQPPKLLIKYASNLESGVPSRFSGSGSGTDFTLNIHPLEPEDFATYYCHHSWEIPLTFGQGTKLEIKR	0.85 relative to Chimera	1.12 relative to Chimera	2.4	0.000628	262000	2.06	0.000587	284000	1.37 relative to Chimera	Kd [3]: 2.23 nM; koff [3]: 0.000608 s⁻¹; kon [3]: 273000 M⁻¹ s⁻¹
VH3/VK1 (antibody, human IgG4 S228P, kappa, V domains shown, humanized HJ8.5 variant, combination of VH3 and VK1) VH: EVQVVESGGGLVQPGGSLKLSCVVSGFTFSNYWVNWVRQAPGKGLEWVAQIRLKSDNYATHYEESVKGRFTISRDDSKNSVYLQMNSLRAEDTAIYYCTNWEDYWGQGTTVTVSS VL: DIVLTQSPDSLAVSLGERATISCRASQSVSTSRYSYIHWYQQKPGQPPKLLIKYASNLESGVPSRFSGSGSGTDFTLNIHPLEEEDFATYYCHHSWEIPLTFGQGTKLEIKR	1.42 relative to Chimera	1.04 relative to Chimera	–	–	–	–	–	–	1.16 relative to Chimera	–
VH2/VK4 (antibody, human IgG4 S228P, kappa, humanized HJ8.5 variant, combination of VH2 and VK4) heavy chain: not shown light chain: DIVMTQSPDSLAVSLGERATISCRASQSVSTSRYSYIHWYQQKPGQPPKLLIKYASNLESGVPSRFSGSGSGTDFTLTISSLQPEDFATYYCHHSWEIPLTFGQGTKLEIKRTVAAPSVFIFPPSDEQLKSGTASVVCLLNNFYPREAKVQWKVDNALQSGNSQESVTEQDSKDSTYSLSSTLTLSKADYEKHKVYACEVTHQGLSSPVTKSFNRGEC	1.03 relative to Chimera	1.37 relative to Chimera	–	–	–	–	–	–	1.36 relative to Chimera	–
VH2/VK1 (antibody, human IgG4 S228P, kappa, V domains shown, humanized HJ8.5 variant, combination of VH2 and VK1) VH: EVKVVESGGGLVQPGGSLKLSCVVSGFTFSNYWVNWVRQAPGKGLEWVAQIRLKSDNYATHYEESVKGRFTISRDDSKSSVYLQMNSLRAEDTGIYYCTNWEDYWGQGTTVTVSS VL: DIVLTQSPDSLAVSLGERATISCRASQSVSTSRYSYIHWYQQKPGQPPKLLIKYASNLESGVPSRFSGSGSGTDFTLNIHPLEEEDFATYYCHHSWEIPLTFGQGTKLEIKR	1.02 relative to Chimera	1.02 relative to Chimera	–	–	–	–	–	–	1.43 relative to Chimera	–
VH2/VK3 humanized anti-tau antibody (antibody, human IgG4 S228P, kappa, Humanized variant of HJ8.5) heavy: not shown light: DIVLTQSPDSLAVSLGERATISCRASQSVSTSRYSYIHWYQQKPGQPPKLLIKYASNLESGVPSRFSGSGSGTDFTLTISSLQPEDFATYYCHHSWEIPLTFGQGTKLEIKRTVAAPSVFIFPPSDEQLKSGTASVVCLLNNFYPREAKVQWKVDNALQSGNSQESVTEQDSKDSTYSLSSTLTLSKADYEKHKVYACEVTHQGLSSPVTKSFNRGEC	0.97 relative to Chimera	0.94 relative to Chimera	2.44	0.000653	268000	1.83	0.000533	292000	1.17 relative to Chimera	Kd [7]: 2.13 nM; koff [7]: 0.000593 s⁻¹; kon [7]: 280000 M⁻¹ s⁻¹
VH1/VK4 (antibody, human IgG4 S228P, kappa, humanized HJ8.5 variant, combination of VH1 and VK4) heavy chain: not shown light chain: DIVMTQSPDSLAVSLGERATISCRASQSVSTSRYSYIHWYQQKPGQPPKLLIKYASNLESGVPSRFSGSGSGTDFTLTISSLQPEDFATYYCHHSWEIPLTFGQGTKLEIKRTVAAPSVFIFPPSDEQLKSGTASVVCLLNNFYPREAKVQWKVDNALQSGNSQESVTEQDSKDSTYSLSSTLTLSKADYEKHKVYACEVTHQGLSSPVTKSFNRGEC	1.02 relative to Chimera	1.41 relative to Chimera	–	–	–	–	–	–	2.05 relative to Chimera	–
VH1/VK3 humanized anti-tau antibody (antibody, human IgG4 S228P, kappa, Humanized variant of HJ8.5) heavy: not shown light: DIVLTQSPDSLAVSLGERATISCRASQSVSTSRYSYIHWYQQKPGQPPKLLIKYASNLESGVPSRFSGSGSGTDFTLTISSLQPEDFATYYCHHSWEIPLTFGQGTKLEIKRTVAAPSVFIFPPSDEQLKSGTASVVCLLNNFYPREAKVQWKVDNALQSGNSQESVTEQDSKDSTYSLSSTLTLSKADYEKHKVYACEVTHQGLSSPVTKSFNRGEC	–	–	2.24	0.000626	280000	1.94	0.000572	295000	–	Kd [8]: 2.09 nM; koff [8]: 0.000599 s⁻¹; kon [8]: 287000 M⁻¹ s⁻¹
VH1/VK1 (antibody, human IgG4 S228P, kappa, V domains shown, humanized HJ8.5 variant, combination of VH1 and VK1) VH: EVKVVESGGGLVQPGGSMKLSCVVSGFTFSNYWVNWVRQAPGKGLEWVAQIRLKSDNYATHYEESVKGRFTISRDDSKSSVYLQMNNLRAEDSGIYYCTNWEDYWGQGTTVTVSS VL: DIVLTQSPDSLAVSLGERATISCRASQSVSTSRYSYIHWYQQKPGQPPKLLIKYASNLESGVPSRFSGSGSGTDFTLNIHPLEEEDFATYYCHHSWEIPLTFGQGTKLEIKR	1.11 relative to Chimera	0.84 relative to Chimera	–	–	–	–	–	–	1.49 relative to Chimera	–
VH4/VK3 (antibody, human IgG4 S228P, kappa, V domains shown, humanized HJ8.5 variant, combination of VH4 and VK3) VH: EVQLVESGGGLVQPGGSLKLSCVVSGFTFSNYWVNWVRQAPGKGLEWVAQIRLKSDNYATHYEESVKGRFTISRDDSKNSLYLQMNSLRAEDTAIYYCTNWEDYWGQGTTVTVSS VL: DIVLTQSPDSLAVSLGERATISCRASQSVSTSRYSYIHWYQQKPGQPPKLLIKYASNLESGVPSRFSGSGSGTDFTLTISSLQPEDFATYYCHHSWEIPLTFGQGTKLEIKR	1.9 relative to Chimera	1.31 relative to Chimera	–	–	–	–	–	–	1.79 relative to Chimera	–
VH3/VK3 humanized anti-tau antibody (antibody, human IgG4 S228P, kappa, Humanized variant of HJ8.5) heavy: not shown light: DIVLTQSPDSLAVSLGERATISCRASQSVSTSRYSYIHWYQQKPGQPPKLLIKYASNLESGVPSRFSGSGSGTDFTLTISSLQPEDFATYYCHHSWEIPLTFGQGTKLEIKRTVAAPSVFIFPPSDEQLKSGTASVVCLLNNFYPREAKVQWKVDNALQSGNSQESVTEQDSKDSTYSLSSTLTLSKADYEKHKVYACEVTHQGLSSPVTKSFNRGEC	1.34 relative to Chimera	0.93 relative to Chimera	2.2	0.000559	254000	1.65	0.000454	276000	0.84 relative to Chimera	Kd [9]: 1.92 nM; koff [9]: 0.000507 s⁻¹; kon [9]: 265000 M⁻¹ s⁻¹
VH3/VK4 (antibody, human IgG4 S228P, kappa, humanized HJ8.5 variant, combination of VH3 and VK4) heavy chain: not shown light chain: DIVMTQSPDSLAVSLGERATISCRASQSVSTSRYSYIHWYQQKPGQPPKLLIKYASNLESGVPSRFSGSGSGTDFTLTISSLQPEDFATYYCHHSWEIPLTFGQGTKLEIKRTVAAPSVFIFPPSDEQLKSGTASVVCLLNNFYPREAKVQWKVDNALQSGNSQESVTEQDSKDSTYSLSSTLTLSKADYEKHKVYACEVTHQGLSSPVTKSFNRGEC	1.22 relative to Chimera	1.51 relative to Chimera	–	–	–	–	–	–	0.89 relative to Chimera	–
VH3/VK2 humanized anti-tau antibody (antibody, human IgG4 S228P, kappa, V domains shown, Humanized variant of HJ8.5) VH: EVQVVESGGGLVQPGGSLKLSCVVSGFTFSNYWVNWVRQAPGKGLEWVAQIRLKSDNYATHYEESVKGRFTISRDDSKNSVYLQMNSLRAEDTAIYYCTNWEDYWGQGTTVTVSS VL: DIVLTQSPDSLAVSLGERATISCRASQSVSTSRYSYIHWYQQKPGQPPKLLIKYASNLESGVPSRFSGSGSGTDFTLNIHPLEPEDFATYYCHHSWEIPLTFGQGTKLEIKR	1.28 relative to Chimera	0.94 relative to Chimera	2.08	0.000546	262000	1.67	0.000485	290000	0.81 relative to Chimera	Kd [10]: 1.88 nM; koff [10]: 0.000515 s⁻¹; kon [10]: 276000 M⁻¹ s⁻¹
